Measured values reported in patent publication US20190338002A1 (Pieris, published 2019).

Tests used:
[1] = target: T1, human alpha CGRP (SEQ ID NO: 80) (human, not fully specified); experiment: cell-based or functional assay
T1 peptide: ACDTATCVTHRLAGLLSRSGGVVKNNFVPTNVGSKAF

[2] = target: T2, human beta CGRP (SEQ ID NO: 81) (human, not fully specified); experiment: cell-based or functional assay
T2 peptide: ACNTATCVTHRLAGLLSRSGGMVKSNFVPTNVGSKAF

[3] = target: T3, rat alpha CGRP (SEQ ID NO: 82) (rat); experiment: cell-based or functional assay
T3 peptide: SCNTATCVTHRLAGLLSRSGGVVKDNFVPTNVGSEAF

[4] = target: T4, rat beta CGRP (SEQ ID NO: 83) (rat, not fully specified); experiment: cell-based or functional assay
T4 peptide: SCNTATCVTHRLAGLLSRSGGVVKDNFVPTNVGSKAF

[5] = target: T1, human alpha CGRP (SEQ ID NO: 80); experiment: SPR, 37 C, mutein captured, CGRP analyte
Summary of the method: (§1)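 Biotinylated lipocalin muteins were captured on streptavidin-oligo CAP chip, and CGRP was injected at 30, 3 and 0.3 nM or at a single 25 nM at 37 °C (180 s association, 5400 s dissociation) in HBS-EP+. Double-referenced sensorgrams were globally fit to a 1:1 model for ka and kd.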

[6] = target: T2, human beta CGRP (SEQ ID NO: 81); experiment: SPR, 37 C, mutein captured, CGRP analyte
Summary of the method: as §1

[7] = target: T3, rat alpha CGRP (SEQ ID NO: 82); experiment: SPR, 37 C, mutein captured, CGRP analyte
Summary of the method: as §1

[8] = target: T4, rat beta CGRP (SEQ ID NO: 83); experiment: SPR, 37 C, mutein captured, CGRP analyte
Summary of the method: as §1

[9] = target: T1, human alpha CGRP (SEQ ID NO: 80); experiment: SPR Biacore 37 °C, mutein captured as ligand, ha CGRP (1-37) injected, 1:1 fit; repeat run 130208_NAN-DS-047 (not the run of Table 2) [contd]
Experimental: (§2) The Biotin CAPture Kit (GE Healthcare) was used to immobilize biotinylated lipocalin muteins to a chip surface. Muteins were biotinylated using standard NHS chemistry. Undiluted Biotin CAPture Reagent (streptavidin conjugated with ss-DNA oligo) was captured on a Sensor Chip CAP with the pre-immobilized complementary ss-DNA oligo. Thereafter, biotinylated muteins at 1 μg/mL were applied for 300 s at a flow rate of 5 μL/min.
(§3) CGRP species were applied in three concentrations of 30 nM, 3 nM and 0.3 nM at a flow rate of 30 μL/min or in a single concentration of 25 nM per cycle as shown in FIG. 2. The dilutions were injected with association times of 180 s and dissociation times of 5400 sec to obtain ka and kd information. Regeneration of the chip surface was achieved by injecting 6 M Guanidinium-HCl+0.25 M NaOH (120 s) with a flow rate of 10 μL/min. Injection of regeneration solutions was followed by an extra wash step with HBS-EP+(1×; BR-1006-69; GE Healthcare) running buffer and a stabilization period of 120 s.
(§4) The data were double-referenced by subtraction of the corresponding signals measured for the control channel (loaded with Biotin CAPture reagent only) and by subtraction of buffer injections from the binding responses. Association rate constant ka and dissociation rate constant kd for the binding reaction were determined using Biacore T200 Evaluation Software V2.0 for data processing and kinetic fitting. The data were globally fit with 1:1 binding model.

[10] = target: T2, human beta CGRP (SEQ ID NO: 81); experiment: SPR Biacore 37 °C, mutein captured as ligand, hb CGRP (1-37) injected, 1:1 fit; repeat run 130208_NAN-DS-047 (not the run of Table 2) [contd]
Experimental: as §2, §3, §4

[11] = target: T3, rat alpha CGRP (SEQ ID NO: 82); experiment: SPR Biacore 37 °C, mutein captured as ligand, ra CGRP (1-37) injected, 1:1 fit; repeat run 130208_NAN-DS-047 (not the run of Table 2) [contd]
Experimental: as §2, §3, §4

[12] = target: T4, rat beta CGRP (SEQ ID NO: 83); experiment: SPR Biacore 37 °C, mutein captured as ligand, rb CGRP (1-37) injected, 1:1 fit; repeat run 130208_NAN-DS-047 (not the run of Table 2) [contd]
Experimental: as §2, §3, §4

[13] = target: T4, rat beta CGRP (SEQ ID NO: 83); experiment: SPR Biacore 37 °C, mutein captured as ligand, rb CGRP sample PL1830 injected, 1:1 fit; repeat run 130903_NAN-DS-058 (not the run of Table 2) [contd]
[14] = target: T1, human alpha CGRP (SEQ ID NO: 80); experiment: SPR Biacore 37 °C, mutein captured as ligand, sample PL1827 (ha CGRP) injected, 1:1 fit; repeat run 130903_NAN-DS-058 (not the run of Table 2) [contd]
Experimental: as §2, §3, §4

[15] = target: T2, human beta CGRP (SEQ ID NO: 81); experiment: SPR Biacore 37 °C, mutein captured as ligand, sample PL1828 (hb CGRP) injected, 1:1 fit; repeat run 130903_NAN-DS-058 (not the run of Table 2) [contd]
Experimental: as §2
as §3, with “Injection of regeneration solutions was followed by an extra wash step with HBS-EP+(1×; BR-1006-69; GE Healthcare) running buffer and a stabilization period of 120 s.” left out
as §4, with “The data were globally fit with 1:1 binding model.” left out

[16] = target: T3, rat alpha CGRP (SEQ ID NO: 82); experiment: SPR Biacore 37 °C, mutein captured as ligand, sample PL1829 (ra CGRP) injected, 1:1 fit; repeat run 130903_NAN-DS-058 (not the run of Table 2) [contd]
Experimental: as §2
as §3, with “Injection of regeneration solutions was followed by an extra wash step with HBS-EP+(1×; BR-1006-69; GE Healthcare) running buffer and a stabilization period of 120 s.” left out
as §4, with “The data were globally fit with 1:1 binding model.” left out

[17] = target: T4, rat beta CGRP (SEQ ID NO: 83); experiment: SPR Biacore 37 °C, mutein captured as ligand, sample PL1830 (rb CGRP) injected, 1:1 fit; repeat run 130903_NAN-DS-058 (not the run of Table 2) [contd]
Experimental: as §2
as §3, with “Injection of regeneration solutions was followed by an extra wash step with HBS-EP+(1×; BR-1006-69; GE Healthcare) running buffer and a stabilization period of 120 s.” left out
as §4, with “The data were globally fit with 1:1 binding model.” left out

B1: lipocalin mutein SEQ ID NO: 11 (designed binder)
chain: QDSTSDLIPAPPLSKVPLQQNFQDNQFHGKWYVVGWAGNTLLREDKDPIKMQAIIYELKEDRSYNVTWVYFSEKKCNYHIETFVPGSQPGEFTLGTIKSYPGETPILVRVVSTNYNQHAMVFFKGVNQNREIFEIILYGRTKELTNELKENFIRFSKSLGLPENHIVFPVPIDQCIDGSAWSHPQFEK
notes: biotinylated by NHS chemistry for capture in SPR
IC50, CGRP-induced cAMP production, SK-N-MC cells [1]: 110 pM | IC50, CGRP-induced cAMP production, SK-N-MC cells [2]: 220 pM | IC50, CGRP-induced cAMP production, L6 cells [3]: 80 pM | IC50, CGRP-induced cAMP production, L6 cells [4]: 60 pM | Kd [5]: 15 pM | koff [5]: 4.55e-05 s⁻¹ | kon [5]: 3.08e+06 M⁻¹ s⁻¹ | Kd [6]: 7 pM | koff [6]: 5.63e-05 s⁻¹ | kon [6]: 7.91e+06 M⁻¹ s⁻¹ | Kd [7]: 80 pM | koff [7]: 7.6e-05 s⁻¹ | kon [7]: 984000 M⁻¹ s⁻¹ | Kd [8]: 42 pM | koff [8]: 7.3e-05 s⁻¹ | kon [8]: 1.74e+06 M⁻¹ s⁻¹ | koff [9]: 5.31e-05 s⁻¹ | kon [9]: 2.02e+06 M⁻¹ s⁻¹ | koff [10]: 4.61e-05 s⁻¹ | kon [10]: 4.14e+06 M⁻¹ s⁻¹ | koff [11]: 7.72e-05 s⁻¹ | kon [11]: 867000 M⁻¹ s⁻¹ | koff [12]: 5.56e-05 s⁻¹ | kon [12]: 969000 M⁻¹ s⁻¹ | koff [13]: 6.38e-05 s⁻¹ | koff [14]: 6.55e-05 s⁻¹ | kon [14]: 1.76e+06 M⁻¹ s⁻¹ | koff [15]: 3.73e-05 s⁻¹ | kon [15]: 2.41e+06 M⁻¹ s⁻¹ | koff [16]: 8.08e-05 s⁻¹ | kon [16]: 1.58e+06 M⁻¹ s⁻¹ | kon [17]: 1.75e+06 M⁻¹ s⁻¹
